Patent US20040116336A1 (TAKADA PHARMACEUTICAL, published 2004)
Read-outs that look alike come from different tables or passages of the source. Each block holds one binder with its values, some of them ahead of it. Starred links: 1 amine or outer side, 2 acyl side, 3 side chain; linkers in the order of their positions; H or OH if unused. Non-standard residues stand in square brackets, D forms with d. No end group written: not given here. Pyn = 1-pyrenylalanine, O=C([C@H](Cc1ccc2ccc3cccc4ccc1c2c34)N[*:1])[*:2]; Phe(4-Cl) = N[C@@H](Cc1ccc(Cl)cc1)C(=O)O; Lys(Me2) = CN(C)CCCC[C@H](N)C(=O)O; Cha = N[C@@H](CC1CCCCC1)C(=O)O

Tests used:
[1] = biological target: T1, APJ (orphan G protein-coupled receptor protein); assay: cell-based or functional assay
T1 chain: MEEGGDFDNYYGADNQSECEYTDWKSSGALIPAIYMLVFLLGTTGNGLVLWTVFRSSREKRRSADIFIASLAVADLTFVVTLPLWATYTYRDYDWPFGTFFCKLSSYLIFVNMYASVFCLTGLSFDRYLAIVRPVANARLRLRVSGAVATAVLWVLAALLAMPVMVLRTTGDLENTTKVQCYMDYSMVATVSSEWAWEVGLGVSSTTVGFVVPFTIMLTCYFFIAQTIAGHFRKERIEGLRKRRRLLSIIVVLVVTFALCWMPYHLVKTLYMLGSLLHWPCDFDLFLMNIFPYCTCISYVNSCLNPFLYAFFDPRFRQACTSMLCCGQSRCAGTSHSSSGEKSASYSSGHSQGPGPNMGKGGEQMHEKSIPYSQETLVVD

[2] = biological target: T1, APJ (orphan G protein-coupled receptor …); assay: radioligand competition, compound of Ref. Ex. 2 as labelled ligand, CHO-A10 membrane fraction
[3] = biological target: T1, APJ (orphan G protein-coupled receptor …); assay: cell-based or functional assay
[4] = biological target: T1, APJ (orphan G protein-coupled receptor …); assay: radioligand competition, compound of Ref. Ex. 2 as labelled ligand, CHO-A10 membrane fraction
[5] = biological target: T1, APJ (orphan G protein-coupled receptor …); assay: radioligand competition, 125I-labelled compound of Ref. Ex. 1 (100 pM), CHO-A10 membrane fraction
Protocol: This product was mixed with an equal volume of an assay buffer (50 mM Tris-HCl/pH 7.5, 5 mM EDTA, 0.5 mM PMSF, 20 μg/ml leupeptin, 0.1 μg/ml pepstatin A, 4 μg/ml E-64 (Peptide Research Laboratory, Co.), 0.1% bovine serum albumin) and stored at −30° C. before use.
CHO-A10 cells were cultured, recovered with PBS containing 5 mM EDTA from a culture vessel, and suspended in the above-mentioned assay buffer not containing bovine serum albumin. The cells were homogenized 3 times at 12,000 rpm for 15 seconds by a Polytron homogenizer (manufactured by Kinematica Inc.) and then centrifuged (1000×g, 4° C., 10 minutes), and the supernatant was recovered. The precipitates were subjected again to the same procedure as above, and the respective supernatants were combined and centrifuged at 100,000×g, 4° C. for 1 hour, to recover precipitates (membrane fraction). The membrane fraction was suspended again in a small amount of the buffer, homogenized with a Teflon homogenizer and stored at −80° C. before use.
Binding assay was carried out under the following conditions. […] containing 0.25 μg of the membrane fraction, the ¹²⁵I-labeled compound at a final concentration of 100 pM, a test sample and an assay buffer were put onto each well of a 96-well polypropylene plate, and incubated at room temperature for 1.5 hours. Measurement of non-specific binding was carried out using a well containing 1 μM unlabeled compound in place of the test sample. After the incubation was finished, a cell harvester (Packard) adapted to 96 wells and a filter unit (GF/C, Packard) were used for separation thereby capturing the membrane fraction on the filter. After the filter was sufficiently dried, Microcinti 0 (Packard) was added thereto, and using Top Count (Packard), the amount of the labeled material captured together with the membrane fraction on the filter was measured.

[6] = biological target: T1, APJ (orphan G protein-coupled receptor …); assay: cell-based or functional assay
[7] = biological target: T1, APJ (orphan G protein-coupled receptor …); assay: radioligand competition, compound of Ref. Ex. 2 as labelled ligand, CHO-A10 membrane fraction
[8] = biological target: T1, APJ (orphan G protein-coupled receptor …); assay: radioligand competition, 125I-labelled compound of Ref. Ex. 1 (100 pM), CHO-A10 membrane fraction

Binder: RRRRPRLSHKGPMPF [Arg-Arg-Arg-Arg-Pro-Arg-Leu-Ser-His-Lys-Gly-Pro-Met-Pro-Phe]
EC50, inhibition of forskolin-stimulated cAMP production (CHO-A10 clone 6 cells) [1]: 0.32 nM

Binder: RPRLSA[Lys(Me2)]GPMPF (also called Compound in Ex. 64) [Arg-Pro-Arg-Leu-Ser-Ala-Lys(Me)2-Gly-Pro-Met-Pro-Phe]
EC50, inhibition of forskolin-stimulated cAMP production (CHO-A10 clone 6 cells) [6]: 0.38 nM
IC50 [8]: 0.38 nM

Binder: RPRLSARGP[Cha][Pyn] (not fully specified; printed as Arg-Pro-Arg-Leu-Ser-Ala-Arg-Gly-Pro-Cha-Pyn, also called Compound in Ex. 60) [Arg-Pro-Arg-Leu-Ser-Ala-Arg-Gly-Pro-Cha-Pyn]
EC50, inhibition of forskolin-stimulated cAMP production (CHO-A10 clone 6 cells) [6]: 1.1 nM
IC50 [7]: 0.8 nM
IC50 [8]: 1.1 nM

Binder: RRARPRLSHKGPMPF (also called Compound in Ex. 25) [Arg-Arg-Ala-Arg-Pro-Arg-Leu-Ser-His-Lys-Gly-Pro-Met-Pro-Phe]
EC50, inhibition of forskolin-stimulated cAMP production (CHO-A10 clone 6 cells) [1]: 0.25 nM
IC50 [2]: 0.067 nM
IC50 [5]: 34 nM

Binder: RPRLFARGPMF (also called Compound in Ex. 47) [Arg-Pro-Arg-Leu-Phe-Ala-Arg-Gly-Pro-Met-Phe]
EC50, inhibition of forskolin-stimulated cAMP production (CHO-A10 clone 6 cells) [1]: 0.36 nM
IC50 [2]: 1.8 nM

Binder: RRQRPRLSARGPM (also called Compound in Ex. 18) [Arg-Arg-Gln-Arg-Pro-Arg-Leu-Ser-Ala-Arg-Gly-Pro-Met]
EC50, inhibition of forskolin-stimulated cAMP production (CHO-A10 clone 6 cells) [1]: 0.18 nM
IC50 [2]: 0.023 nM
IC50 [5]: 2.5 nM

Binder: RRQRPRLSARGP [Arg-Arg-Gln-Arg-Pro-Arg-Leu-Ser-Ala-Arg-Gly-Pro]
EC50, inhibition of forskolin-stimulated cAMP production (CHO-A10 clone 6 cells) [1]: 0.26 nM

Binder: RPRLSARGP[Cha]P[Pyn] (not fully specified; printed as Arg-Pro-Arg-Leu-Ser-Ala-Arg-Gly-Pro-Cha-Pro-Pyn, also called Compound in Ex. 61) [Arg-Pro-Arg-Leu-Ser-Ala-Arg-Gly-Pro-Cha-Pro-Pyn]
EC50, inhibition of forskolin-stimulated cAMP production (CHO-A10 clone 6 cells) [6]: 2.2 nM
IC50 [7]: 0.56 nM
IC50 [8]: 2.2 nM

The next lines start with the values.

EC50, inhibition of forskolin-stimulated cAMP production (CHO-A10 clone 6 cells) [1]: 0.14 nM
IC50 [2]: 0.27 nM
Binder: RPRLFARGPMPF (also called Compound in Ex. 31) [Arg-Pro-Arg-Leu-Phe-Ala-Arg-Gly-Pro-Met-Pro-Phe]

EC50, inhibition of forskolin-stimulated cAMP production (CHO-A10 clone 6 cells) [3]: 0.34 nM
IC50 [4]: 0.039 nM
IC50 [5]: 13 nM
Binder: RPRLSHKGPMP[Phe(4-Cl)] (also called Compound in Ex. 8) [Arg-Pro-Arg-Leu-Ser-His-Lys-Gly-Pro-Met-Pro-Phe(Cl)]

EC50, inhibition of forskolin-stimulated cAMP production (CHO-A10 clone 6 cells) [6]: 0.33 nM
IC50 [7]: 0.074 nM
IC50 [8]: 0.33 nM
Binder: RP[Lys(Me2)]LSARGPMPF (also called Compound in Ex. 63) [Arg-Pro-Lys(Me)2-Leu-Ser-Ala-Arg-Gly-Pro-Met-Pro-Phe]

EC50, inhibition of forskolin-stimulated cAMP production (CHO-A10 clone 6 cells) [1]: 1.1 nM
IC50 [2]: 0.37 nM
Binder: RRFRPRLSHKGPMPF (also called Compound in Ex. 33) [Arg-Arg-Phe-Arg-Pro-Arg-Leu-Ser-His-Lys-Gly-Pro-Met-Pro-Phe]

EC50, inhibition of forskolin-stimulated cAMP production (CHO-A10 clone 6 cells) [1]: 0.31 nM
IC50 [2]: 0.09 nM
IC50 [5]: 9.2 nM
Binder: RRKRPRLSHKGPMPF (also called Compound in Ex. 23) [Arg-Arg-Lys-Arg-Pro-Arg-Leu-Ser-His-Lys-Gly-Pro-Met-Pro-Phe]

EC50, inhibition of forskolin-stimulated cAMP production (CHO-A10 clone 6 cells) [6]: 0.23 nM
IC50 [7]: 0.14 nM
IC50 [8]: 0.23 nM
B1: Arg-Arg-Gln-Arg-Pro-Arg-Leu-Ser-Ala-Arg-Gly-Gly-Cha (peptide)
peptide: RRQRPRLSARGG[Cha]
modifications: not fully specified; printed as Arg-Arg-Gln-Arg-Pro-Arg-Leu-Ser-Ala-Arg-Gly-Gly-Cha
notes: also called Compound in Ex. 62

EC50, inhibition of forskolin-stimulated cAMP production (CHO-A10 clone 6 cells) [1]: 0.25 nM
IC50 [2]: 0.057 nM
IC50 [5]: 27 nM
Binder: RPRLSARGPMPF (also called Compound in Ex. 24) [Arg-Pro-Arg-Leu-Ser-Ala-Arg-Gly-Pro-Met-Pro-Phe]

IC50 [2]: 0.036 nM
Binder: RRQRPRLSARGPMPF (also called Compound in Ex. 17) [Arg-Arg-Gln-Arg-Pro-Arg-Leu-Ser-Ala-Arg-Gly-Pro-Met-Pro-Phe]

IC50 [2]: 0.11 nM
Binder: RPRLSARGPM (also called Compound in Ex. 27) [Arg-Pro-Arg-Leu-Ser-Ala-Arg-Gly-Pro-Met]
